# B1: sRAGE: murine soluble RAGE, the extracellular ligand binding domain of RAGE (protein, UniProt Q62151 23-340, looked up)
# extracellular domain: GQNITARIGEPLVLSCKGAPKKPPQQLEWKLNTGRTEAWKVLSPQGGPWDSVARILPNGSLLLPATGIVDEGTFRCRATNRRGKEVKSNYRVRVYQIPGKPEIVDPASELTASVPNKVGTCVSEGSYPAGTLSWHLDGKLLIPDGKETLVKEETRRHPETGLFTLRSELTVIPTQGGTHPTFSCSFSLGLPRRRPLNTAPIQLRVREPGPPEGIQLLVEPEGGIVAPGGTVTLTCAISAQPPPQVHWIKDGAPLPLAPSPVLLLPEVGHEDEGTYSCVATHPSHGPQESPPVSIRVTETGDEGPAEGSVGESGLGTLA
# modifications: extracellular domain
# Experiments:
# male BALB/c mice = conditions: ADR 10.5 mg/kg IV, up to 6 weeks; cited from earlier work
# [1] = system: male BALB/c mice treated with adriamycin (ADR); assay: ADR-induced glomerular injury in BALB/c mice: kidney weight and mesangial morphometry (PAS staining); type: in vivo, mouse; conditions: for kidney weight/body weight ratio: sRAGE 100 μg per day once daily, vs. PBS-treated mice; for mesangial area / mesangial/glomerular area: sRAGE 100 μg per day, compared with PBS treatment, PAS staining
# Procedure: (§1) Male BALB/c mice at the age of six weeks received one intravenous dose of adriamycin (ADR), 10.5 mg/kg. Immediately after injection of ADR, mice received once daily administration of murine soluble RAGE, the extracellular ligand binding domain of RAGE, 100 μg per day, beginning immediately at the time of ADR treatment, and continued until the day of sacrifice.
# Dissected kidneys were fixed in buffered formalin (10%) overnight and then routinely processed for light microscopy. Fixed paraffin-embedded tissues were cut (3 μm thick) and mounted on slides coated with 3-aminopropyltriethoxy silane (Sigma) followed by incubation at 37° C. overnight. Light microscopic views after staining with periodic acid Schiff (PAS) were scanned into a computer and the quantification of areas of mesangial matrix and glomerulus was performed using a Zeiss microscope and image analysis system (MediaCybernetics). To calculate mesangial area, only nuclei-free regions were included. Forty glomeruli from each animal were selected at random on the stained sections (20 from the outer region and 20 from the inner region). Morphometry was performed by investigators blinded to the experimental protocol.
# To address the concept that RAGE may be involved in the pathogenesis of ADR-mediated FSGS, a single injection of ADR, 10.5 mg/kg, to male BALB/c mice at age 6 weeks was administered. ADR-treated mice received once daily administration of murine soluble RAGE, the extracellular ligand binding domain of RAGE, 100 μg per day, beginning immediately at the time of ADR treatment, and continued until the day of sacrifice. Other ADR-treated mice received vehicle, PBS.
# [2] = system: male BALB/c mice treated with adriamycin (ADR); assay: ADR-induced albuminuria in BALB/c mice: 24 hr urine albumin/creatinine; type: in vivo, mouse; conditions: sRAGE 100 μg per day, mean±SE
# Procedure: as §1
# Twenty-four hour urine collection was obtained from each animal using metabolic cages. Urine albumin and creatinine were determined using Albuwell M and creatinine assays from Exocell (Philadelphia, Pa.) according to the manufacturer's instructions.
# The key test of these concepts was the degree to which blockade of RAGE would suppress the development of albuminuria. Mice were placed in metabolic cages and 24 hr urine collected. Urine levels of albumin and creatinine were determined; results are reported as μg albumin/μg creatinine. […] At six weeks, the results were similarly striking.
Molecule,mice that developed hematuria (male BALB/c mice) [%],mice that developed leukocyturia (male BALB/c mice) [%],kidney weight/body weight ratio ([1]; 2 weeks after ADR 10.5 mg/kg),mesangial area ([1]; 2 weeks after ADR),mesangial/glomerular area ([1]; 2 weeks after ADR),kidney weight/body weight ratio ([1]; 6 weeks after ADR 10.5 mg/kg),mesangial area ([1]; 6 weeks after ADR),mesangial/glomerular area ([1]; 6 weeks after ADR),"urine albumin/creatinine ([2]; 2 weeks after ADR, p<0.05 vs. PBS-treated mice receiving ADR (809.55±365.85)) [μg albumin/μg creatinine]","urine albumin/creatinine ([2]; 6 weeks after ADR, p<0.01 vs PBS/ADR (1,362.96±987.97)) [μg albumin/μg creatinine]"
"COc1cccc2c1C(=O)c1c(O)c3c(c(O)c1C2=O)C[C@@](O)(C(=O)CO)C[C@@H]3O[C@H]1C[C@H](N)[C@H](O)[C@H](C)O1 [ADR, adriamycin]",35.7,53.6,,,,,,,,
B1,,,significantly decreased,significantly decreased,significantly decreased,significantly decreased,significantly decreased,significantly decreased,191.08±49.93,249.76±283.19
